Measured values published in patent US20260097113A1 (Pfizer, published 2026).

T1: RSV F protein of subtype A comprising a polypeptide of SEQ ID NO: 1 and a polypeptide of SEQ ID NO: 2 (RSV subtype A, UniProt P11209 137-513; P03420 26-109)
T1 construct: Stabilized prefusion F trimer made of three F2-F1 heterodimers; Produced recombinantly in CHO cells; also called RSV A; RSVA
T1 chain 1: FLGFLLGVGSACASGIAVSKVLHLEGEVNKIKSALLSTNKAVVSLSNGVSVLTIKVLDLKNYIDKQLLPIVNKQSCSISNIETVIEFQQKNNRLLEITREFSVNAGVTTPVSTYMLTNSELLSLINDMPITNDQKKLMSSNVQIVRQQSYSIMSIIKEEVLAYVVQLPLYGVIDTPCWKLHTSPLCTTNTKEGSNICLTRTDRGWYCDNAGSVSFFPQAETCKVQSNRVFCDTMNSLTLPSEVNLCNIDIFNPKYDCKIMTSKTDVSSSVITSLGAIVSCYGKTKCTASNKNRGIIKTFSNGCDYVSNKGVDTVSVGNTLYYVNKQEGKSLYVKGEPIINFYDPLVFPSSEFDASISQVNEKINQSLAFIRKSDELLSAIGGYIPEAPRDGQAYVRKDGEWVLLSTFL
T1 chain 2: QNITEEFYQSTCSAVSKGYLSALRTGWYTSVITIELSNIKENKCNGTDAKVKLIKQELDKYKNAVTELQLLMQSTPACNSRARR

B1: AM14 (trimeric prefusion specific antibody of the AM14 ELISA) (antibody, V domains shown)
VH: EVQLVESGGGVVQPGRSLRLSCAASGFSFSHYAMHWVRQAPGKGLEWVAVISYDGENTYYADSVKGRFSISRDNSKNTVSLQMNSLRPEDTALYYCARDRIVDDYYYYGMDVWGQGATVTVSS
VL: DIQMTQSPSSLSASVGDRVTITCQASQDIKKYLNWYHQKPGKVPELLMHDASNLETGVPSRFSGRGSGTDFTLTISSLQPEDIGTYYCQQYDNLPPLTFGGGTKVEIKR
notes: Antibody as used in the AM14 ELISA, detected with an HRP-labeled secondary antibody

Assays:
[1] = target: RSV A + RSV B bivalent composition (RSV subtype A; RSV subtype B); assay: AM14 Fab titration by SEC; Low-Fast cycle; 1 M 25°C
[2] = target: RSV A + RSV B bivalent composition (RSV subtype A; RSV subtype B); assay: AM14 Fab titration by SEC; Low-Fast cycle; 1 M 40°C
[3] = target: RSV A + RSV B bivalent composition (RSV subtype A; RSV subtype B); assay: AM14 Fab titration by SEC; Low-Fast cycle; 1 M 2-8°C
[4] = target: RSV A + RSV B bivalent composition (RSV subtype A; RSV subtype B); assay: AM14 Fab titration by SEC; Low-Fast cycle; 8 M 2-8°C
[5] = target: RSV A + RSV B bivalent composition (RSV subtype A; RSV subtype B); assay: AM14 Fab titration by SEC; High-Slow 1 cycle; 3 M 2-8°C
[6] = target: RSV A + RSV B bivalent composition (RSV subtype A; RSV subtype B); assay: AM14 Fab titration by SEC; High-Slow 2 cycle; 1 M 40°C (second value)
[7] = target: RSV A + RSV B bivalent composition (RSV subtype A; RSV subtype B); assay: AM14 Fab titration by SEC; composition of Table 17; Pre-lyo Prep 1, T0
[8] = target: RSV A + RSV B bivalent composition (RSV subtype A; RSV subtype B); assay: AM14 Fab titration by SEC; composition of Table 14; Target lyophilization cycle, T0
[9] = target: T1, RSV F protein of subtype A comprising a …; assay: AM14 ELISA; F9 (pH 8, 50 mM NaCl, 4.5% sucrose); T0
[10] = target: T1, RSV F protein of subtype A comprising a …; assay: AM14 ELISA; F2 (pH 8, 0 mM NaCl, 0% sucrose); 1 wk 5°C
[11] = target: T1, RSV F protein of subtype A comprising a …; assay: AM14 ELISA; F15 (pH 6, 0 mM NaCl, 9% sucrose); 1 wk 5°C
[12] = target: T1, RSV F protein of subtype A comprising a …; assay: AM14 ELISA; F3 (pH 8, 0 mM NaCl, 9% sucrose); 2 wk 25°C
[13] = target: T1, RSV F protein of subtype A comprising a …; assay: AM14 ELISA; F8 (pH 7, 50 mM NaCl, 0% sucrose); 2 wk 5°C
[14] = target: T1, RSV F protein of subtype A comprising a …; assay: AM14 ELISA; F6 (pH 7, 0 mM NaCl, 4.5% sucrose); 1 wk 25°C
[15] = target: T1, RSV F protein of subtype A comprising a …; assay: AM14 ELISA; F9 (pH 8, 50 mM NaCl, 4.5% sucrose); 1 wk 25°C
[16] = target: T1, RSV F protein of subtype A comprising a …; assay: AM14 ELISA; F12 (pH 8, 100 mM NaCl, 9.0% sucrose); 1 wk 5°C
[17] = target: T1, RSV F protein of subtype A comprising a …; assay: AM14 ELISA; F12 (pH 8, 100 mM NaCl, 9.0% sucrose); 1 wk 25°C
[18] = target: T1, RSV F protein of subtype A comprising a …; assay: AM14 ELISA; F18 (pH 7, 50 mM NaCl, 3% sucrose + 3% mannitol); 2 wk 25°C

Row | Molecule | Prefusion Content (%) [1] | Prefusion Content (%) [2] | Prefusion Content (%) [3] | Prefusion Content (%) [4] | Prefusion Content (%) [5] | Prefusion Content (%) [6] | Prefusion Content (%) [7] | Prefusion Content (%) [8] | AM14 prefusion content (%), relative to standard [9] | AM14 prefusion content (%), relative to standard [10] | AM14 prefusion content (%), relative to standard [11] | AM14 prefusion content (%), relative to standard [12] | AM14 prefusion content (%), relative to standard [13] | AM14 prefusion content (%), relative to standard [14] | AM14 prefusion content (%), relative to standard [15] | AM14 prefusion content (%), relative to standard [16] | AM14 prefusion content (%), relative to standard [17] | AM14 prefusion content (%), relative to standard [18]
1 | AM14 Fab | 63% | 65% | 53% | 73% | 49% | 68% | 85% | 80% | – | – | – | – | – | – | – | – | – | –
2 | B1 | – | – | – | – | – | – | – | – | 94% | 86% | 86% | 72% | 101% | 102% | 84% | 98% | 82% | 78%
